Measured values taken from IntAct's records for PubMed 21743457.

B1: Cell division control protein 13 (Saccharomyces cerevisiae), P32797 (parent)
chain: MDTLEEPECPPHKNRIFVSSSKDFEGYPSKAIVPVQFVALLTSIHLTETKCLLGFSNFERRGDQSQEDQYLIKLKFKDRGSERLARITISLLCQYFDIELPDLDSDSGASPTVILRDIHLERLCFSSCKALYVSKHGNYTLFLEDIKPLDLVSVISTISTKSTNSSKHSSSELISECDLNNSLVDIFNNLIEMNRDEKNRFKFVKLIHYDIELKKFVQDQQKVLSQKSKAAAINPFFVPNRLGIPYIESQNEFNSQLMTLNVDEPTTDISNMGEEMHDSADPIEDSDSSTTSSTGKYFSSKSYIQSQTPERKTSVPNNWHDDDSGSKRKRKLSFHSPNASSIRKAISYEQLSLASVGSVERLEGKIVGMNPPQFASINEFKYCTLKLYFTQLLPNVPDKVLVPGVNCIEIVIPTRERICELFGVLNCQSDKISDILLLEKPDRISVEVERILWDNDKTASPGMAVWSLKNISTDTQAQAQVQVPAQSSASIDPSRTRMSKMARKDPTIEFCQLGLDTFETKYITMFGMLVSCSFDKPAFISFVFSDFTKNDIVQNYLYDRYLIDYENKLELNEGFKAIMYKNQFETFDSKLRKIFNNGLRDLQNGRDENLSQYGIVCKMNIKVKMYNGKLNAIVRECEPVPHSQISSIASPSQCEHLRLFYQRAFKRIGESAISRYFEEYRRFFPIHRNGSHLAKLRFDEVKHEPKKSPTTPALAEHIPDLNADVSSFDVKFTDISSLLDSSARLPRPQQTHKSNTLYSCEGRIIAIEYHASDLCFHITNELPLLQTRGLAPERVLQLHIITSKNFAYFFNRSSAYLQRQPLEEKYTQLAQFLGHSFKFNITSSLTLFPDTTVALQIWCPIECTFRELQQQLAHPKVAAAPDSGSLDCAINATVNPLRLLAAQNGVTVKKEEDNDDDAGAVPTS
B2: Cell division control protein 13 (Saccharomyces cerevisiae), P32797 (parent)
chain: B1 chain
partner: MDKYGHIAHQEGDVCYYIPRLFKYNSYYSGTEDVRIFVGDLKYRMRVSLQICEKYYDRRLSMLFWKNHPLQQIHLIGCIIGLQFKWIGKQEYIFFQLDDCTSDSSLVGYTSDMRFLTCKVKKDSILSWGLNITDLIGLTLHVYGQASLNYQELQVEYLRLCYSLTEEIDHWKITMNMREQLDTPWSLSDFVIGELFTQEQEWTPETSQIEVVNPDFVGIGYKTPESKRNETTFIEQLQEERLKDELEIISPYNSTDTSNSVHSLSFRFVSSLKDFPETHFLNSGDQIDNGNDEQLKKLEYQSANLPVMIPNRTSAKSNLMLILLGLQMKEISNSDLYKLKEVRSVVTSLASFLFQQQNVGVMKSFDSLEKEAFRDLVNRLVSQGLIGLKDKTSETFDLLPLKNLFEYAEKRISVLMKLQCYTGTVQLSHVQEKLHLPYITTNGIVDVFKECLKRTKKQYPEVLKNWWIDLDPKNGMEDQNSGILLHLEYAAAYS

Variants of: B1
Conditions: with smt3_yeast SMT3, Q12306
Chain of smt3_yeast SMT3, Q12306 (Q12306 whole entry): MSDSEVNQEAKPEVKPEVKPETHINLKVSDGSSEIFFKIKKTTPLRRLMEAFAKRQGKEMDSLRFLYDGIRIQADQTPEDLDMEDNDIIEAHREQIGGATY

Variant	effect of a mutation on the interaction
K909R	disrupting interaction

Variants of: B2
Conditions: with stn1_yeast STN1, P38960

Variant	effect of a mutation on the interaction
K909R	decreasing interaction
